Data published in US20170298096A1 (CANIMGUIDE THERAPEUTICS, published 2017).
No end group written: not given here.

Target: T1, His-tagged P3028 (human, also: His-tag, terminus and sequence not given here)
T1 construct: used in solution in the PEPSCAN (rampo) ELISA; also called PGE73; His-tag-P3028; not shown: His tag
T1 peptide: VFDEFKPLVEEPQNLIK
Assay: PEPSCAN ELISA (rampo)

| Binder | rampo score relative to the P28R control sample |
| --- | --- |
| KKRDTFFVKLSLFTER [SEQ ID NO 294] | ≥ 98 % of P28R control |
| KKTDTFFVKLSLFTER [SEQ ID NO 296] | ≥ 98 % of P28R control |
| KKLDYFFVKLSLFTER [SEQ ID NO 312] | ≥ 98 % of P28R control |
| KKLDTNFVKLSLFTER [SEQ ID NO 316] | ≥ 98 % of P28R control |
| KKLYTFFVKLSLFTER [SEQ ID NO 303] | ≥ 98 % of P28R control |
| KKLDCFFVKLSLFTER [SEQ ID NO 304] | ≥ 98 % of P28R control |
| KKLDQFFVKLSLFTER [SEQ ID NO 308] | ≥ 98 % of P28R control |
| KKLDTMFVKLSLFTER [SEQ ID NO 315] | ≥ 98 % of P28R control |
| KKLDTIFVKLSLFTER [SEQ ID NO 314] | ≥ 98 % of P28R control |
| KKLWTFFVKLSLFTER [SEQ ID NO 302] | ≥ 98 % of P28R control |
| KKLDTAFVKLSLFTER [SEQ ID NO 313] | ≥ 98 % of P28R control |
| KKLATFFVKLSLFTER [SEQ ID NO 298] | ≥ 98 % of P28R control |
| KKLDMFFVKLSLFTER [SEQ ID NO 305] | ≥ 98 % of P28R control |
| KKLDPFFVKLSLFTER [SEQ ID NO 307] | ≥ 98 % of P28R control |
| KKLDTPFVKLSLFTER [SEQ ID NO 317] | ≥ 98 % of P28R control |
| KKLDTVFVKLSLFTER [SEQ ID NO 319] | ≥ 98 % of P28R control |
| KKLDTTFVKLSLFTER [SEQ ID NO 318] | ≥ 98 % of P28R control |
| KKVDTFFVKLSLFTER [SEQ ID NO 297] | ≥ 98 % of P28R control |
| KKLDNFFVKLSLFTER [SEQ ID NO 306] | ≥ 98 % of P28R control |
| KKLDSFFVKLSLFTER [SEQ ID NO 310] | ≥ 98 % of P28R control |
| KKLETFFVKLSLFTER [SEQ ID NO 299] | ≥ 98 % of P28R control |
| KKLDRFFVKLSLFTER [SEQ ID NO 309] | ≥ 98 % of P28R control |
| KKLITFFVKLSLFTER [SEQ ID NO 300] | ≥ 98 % of P28R control |
| KKSDTFFVKLSLFTER [SEQ ID NO 295] | ≥ 98 % of P28R control |
| KKLDWFFVKLSLFTER [SEQ ID NO 311] | ≥ 98 % of P28R control |
| KKLVTFFVKLSLFTER [SEQ ID NO 301] | ≥ 98 % of P28R control |
